In paper PMC2680971 (Journal of Molecular Biology, 2009):
One block for each molecule: values may come before it.

Experiments:
[1] = molecular target: DC-SIGNR neck domain, 7.5 repeat form, His2 tag (human); assay: SEC
SEC = molecular target: the molecule itself; assay: SEC

stoichiometry N [1]: 4
Molecule: DC-SIGNR neck domain, 7.5 repeat form, His2 tag (domain or fragment)

B1: DC-SIGNR neck domain, 6.5 repeat polymorphic form, His2 tag (domain or fragment)
chain: KVPSSLSQEQSEQDAIYQNLTQLKAAVGELSEKSKLQEIYQELTQLKAAVGELPEKSKLQEIYQELTRLKAAVGELPEKSKLQEIYQELTRLKAAVGELPEKSKLQEIYQELTRLKAAVGELPEKSKLQEIYQELTELKAAVGELPEKSKLQEIYQELTQLKAAVE
stoichiometry N (SEC): 4
